# Laboratory results published in patent US20260258149A1.
# Biological target: BSA-STn
# Experiment: SPR, BSA-STn-serine immobilised on the chip as ligand, antibody injected as analyte
Binder,Kd [nM],koff [s⁻¹],kon [M⁻¹ s⁻¹]
"humanized anti-STn antibody clone V3 (antibody, V domains shown) VH: QVQLQESGPGLVKPSQTLSLTCSVIGYSITSGYYWNWIRQPPGKGLEWIGSINYDGSNIYNPSLKDRVTISRDTSKNQFSLKLSSVTAADTAVYYCARGGDYWGQGTTVTVSS VL: EIVLTQSPATLSLSPGERATLSCSASSSVSYMHWFQQKPGQAPRRWIYDTSKRATGVPARFSGSGSGTDYTLTISSLEPEDFAAYYCQQWSSDPPMLTFGGGTKLEIK",33.2,0.00568,171000
"humanized anti-STn antibody clone V1 (antibody, V domains shown) VH: QVQLQESGPGLVKPSQTLSLTCTVIGYSITSGYYWNWIRQPPGKGLEWIGSINYDGSNIYNPSLKSRVTISRDTSKNQFSLKLSSVTAADTAVYYCARGGDYWGQGTTVTVSS VL: EIVLTQSPATLSLSPGERATLSCSASSSVSYMHWFQQKPGQAPRRWIYDTSKRATGVPARFSGSGSGTDYTLTISSLEPEDFAAYYCQQWSSDPPMLTFGGGTKLEIK",31.7,0.00553,174000
"humanized anti-STn antibody clone V2 (antibody, V domains shown) VH: QVQLQESGPGLVKPSQTLSLTCSVIGYSITSGYYWNWIRQPPGKGLEWIGSINYDGSNIYNPSLKDRVTISRDTSKNQFSLKLSSVTAADTAVYYCARGGDYWGQGTTVTVSS VL: DIVLTQSPAILSLSPGERATLSCSASSSVSYMHWFQQKSGQAPKRWIYDTSKLASGVPARFSGSGSGTDYTLTISSLEAEDFAAYYCQQWSSDPPMLTFGGGTKLEIK",39.4,0.00519,132000
